Results: US20220363770A1 (Amgen, published 2022)
Where a chain is given by its changes, count along the chain named.

B1: iPS:454857 (bispecific antibody, human IgG1, kappa, lambda, N297G)
light 1: QSVLTQPPSVSAAPGQKVTISCSGSSSNIGNNYVSWYQQLPGTAPKLLIYDNNKRPSGIPDRFSGSKSGTSTTLGITGLQTGDEADYYCGTWDSRLSAVVFGGGTKLTVLGQPKAAPSVTLFPPSSEELQANKATLVCLISDFYPGAVTVAWKADSSPVKAGVETTTPSKQSNNKYAAKSYLSLTPEQWKSHRSYSCQVTHEGSTVEKTVAPTECS
heavy 1: QVQLVESGGGVVQPGRSLRLSCAASGFTFSSFGMHWVRQAPGKGLEWVAVISFDGSIKYSVDSVKGRFTISRDNSKNTLFLQMNSLRAEDTAVYYCARDRLNYYRSFGYYGYHYYGMAVWGQGTTVTVSSASTKGPSVFPLAPSSKSTSGGTAALGCLVKDYFPEPVTVSWNSGALTSGVHTFPAVLQSSGLYSLESVVTVPSSSLGTQTYICNVNHKPSNTKVDKKVEPKSCDKTHTCPPCPAPELLGGPSVFLFPPKPKDTLMISRTPEVTCVVVDVSHEDPEVKFNWYVDGVEVHNAKTKPCEEQYGSTYRCVSVLTVLHQDWLNGKEYKCKVSNKALPAPIEKTISKAKGQPREPQVYTLPPSRKKMTKNQVSLTCLVKGFYPSDIAVEWESNGQPENNYKTTPPVLKSDGSFFLYSKLTVDKSRWQQGNVFSCSVMHEALHNHYTQKSLSLSPGK
light 2: EIVLTQSPATLSLSPGERATLSCRASKSVGQSLHWYQQKPGQAPRLLIKYASQSLSGIPARFSGSGSGTDFTLTISSLEPEDFAVYYCHQSSRLPFTFGPGTKVDIKRTVAAPSVFIFPPSDEQLKSGTASVVCLLNNFYPREAKVQWKVDNALQSGNSQESVTEQDSKDSTYSLESTLTLSKADYEKHKVYACEVTHQGLSSPVTKSFNRGEC
heavy 2: not shown
B2: iPS:454877 (bispecific antibody, human IgG1, kappa, lambda, N297G)
light 1: B1 light 1
heavy 1: B1 heavy 1
light 2: B1 light 2 with Q31R
heavy 2: not shown
B3: iPS:454867 (bispecific antibody, human IgG1, kappa, lambda, N297G)
light 1: B1 light 1
heavy 1: B1 heavy 1
light 2: B1 light 2 with Q31W
heavy 2: not shown
B4: iPS:454893 (bispecific antibody, human IgG1, kappa, lambda, N297G)
light 1: B1 light 1
heavy 1: B1 heavy 1
light 2: B1 light 2 with K27Q, Q31R
heavy 2: not shown
B5: iPS:454879 (bispecific antibody, human IgG1, kappa, lambda, N297G)
light 1: B1 light 1
heavy 1: B1 heavy 1
light 2: B1 light 2 with Q31R
heavy 2: not shown
B6: iPS:454889 (bispecific antibody, human IgG1, kappa, lambda, N297G)
light 1: B1 light 1
heavy 1: B1 heavy 1
light 2: B1 light 2 with Q31R
heavy 2: not shown
B7: iPS:454865 (bispecific antibody, human IgG1, kappa, lambda, N297G)
light 1: B1 light 1
heavy 1: B1 heavy 1
light 2: B1 light 2
heavy 2: not shown
B8: iPS:454863 (bispecific antibody, human IgG1, kappa, lambda, N297G)
light 1: B1 light 1
heavy 1: B1 heavy 1
light 2: B1 light 2
heavy 2: not shown
B9: iPS:454861 (bispecific antibody, human IgG1, kappa, lambda, N297G)
light 1: B1 light 1
heavy 1: B1 heavy 1
light 2: B1 light 2 with K27R, Q31L, S32A, R93F
heavy 2: not shown
B10: iPS:454871 (bispecific antibody, human IgG1, kappa, lambda, N297G)
light 1: B1 light 1
heavy 1: B1 heavy 1
light 2: B1 light 2
heavy 2: not shown
B11: iPS:454891 (bispecific antibody, human IgG1, kappa, lambda, N297G)
light 1: B1 light 1
heavy 1: B1 heavy 1
light 2: B1 light 2 with K27Q, Q31R
heavy 2: not shown
B12: iPS:454885 (bispecific antibody, human IgG1, kappa, lambda, N297G)
light 1: B1 light 1
heavy 1: B1 heavy 1
light 2: B1 light 2 with Q31R
heavy 2: not shown
B13: iPS:454883 (bispecific antibody, human IgG1, kappa, lambda, N297G)
light 1: B1 light 1
heavy 1: B1 heavy 1
light 2: B1 light 2 with Q31R
heavy 2: not shown
B14: iPS:454859 (bispecific antibody, human IgG1, kappa, lambda, N297G)
light 1: B1 light 1
heavy 1: B1 heavy 1
light 2: B1 light 2 with S28A, G30W, Q31H, S32N, R93M
heavy 2: not shown
B15: iPS:454873 (bispecific antibody, human IgG1, kappa, lambda, N297G)
light 1: B1 light 1
heavy 1: B1 heavy 1
light 2: B1 light 2 with S28A, Q31F, R93F
heavy 2: not shown
B16: iPS:454887 (bispecific antibody, human IgG1, kappa, lambda, N297G)
light 1: B1 light 1
heavy 1: B1 heavy 1
light 2: B1 light 2 with Q31R
heavy 2: not shown
B17: iPS:454875 (bispecific antibody, human IgG1, kappa, lambda, N297G)
light 1: B1 light 1
heavy 1: B1 heavy 1
light 2: EIVLTQSPATLSLSPGERATLSCRASRAVSNLHWYQQKPGQAPRLLIKYASQSLSGIPARFSGSGSGTDFTLTISSLEPEDFAVYYCHQSSYLPFTFGPGTKVDIKRTVAAPSVFIFPPSDEQLKSGTASVVCLLNNFYPREAKVQWKVDNALQSGNSQESVTEQDSKDSTYSLESTLTLSKADYEKHKVYACEVTHQGLSSPVTKSFNRGEC
heavy 2: not shown
B18: iPS:454881 (bispecific antibody, human IgG1, kappa, lambda, N297G)
light 1: B1 light 1
heavy 1: B1 heavy 1
light 2: B1 light 2 with Q31R
heavy 2: not shown
B19: iPS:454869 (bispecific antibody, human IgG1, kappa, lambda, N297G)
light 1: B1 light 1
heavy 1: B1 heavy 1
light 2: B1 light 2
heavy 2: not shown

biological target: human CGRP receptor (human, UniProt Q16602 23-461; O60894 27-148); assay: cell-based or functional assay
Sequence (Q16602 23-461 limits assumed, chain 1 of 2): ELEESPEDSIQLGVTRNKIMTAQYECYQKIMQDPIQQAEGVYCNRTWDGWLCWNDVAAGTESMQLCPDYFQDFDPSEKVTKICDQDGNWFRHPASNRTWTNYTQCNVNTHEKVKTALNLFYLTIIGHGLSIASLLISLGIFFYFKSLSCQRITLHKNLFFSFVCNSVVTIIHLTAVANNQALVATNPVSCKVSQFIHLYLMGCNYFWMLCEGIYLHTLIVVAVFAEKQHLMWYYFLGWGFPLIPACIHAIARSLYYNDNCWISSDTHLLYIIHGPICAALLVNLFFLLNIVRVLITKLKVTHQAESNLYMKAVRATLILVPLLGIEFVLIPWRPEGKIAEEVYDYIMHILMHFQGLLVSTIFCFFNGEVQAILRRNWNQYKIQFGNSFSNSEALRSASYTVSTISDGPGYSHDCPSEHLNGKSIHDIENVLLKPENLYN
Sequence (O60894 27-148 limits assumed, chain 2 of 2): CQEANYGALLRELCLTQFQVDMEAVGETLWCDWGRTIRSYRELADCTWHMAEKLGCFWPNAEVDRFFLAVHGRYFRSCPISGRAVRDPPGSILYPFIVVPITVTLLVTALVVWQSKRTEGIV

Row | Binder | Fold-improvement over 4E4 Ab [fold] | IC50 [nM]
1 | B1 | 0.5 | 1.36
2 | B2 | 0.3 | 1.49
3 | B3 | 0.4 | 1.55
4 | B4 | 0.4 | 1.35
5 | B5 | 0.3 | 1.37
6 | B6 | 0.5 | 1.1
7 | B7 | 0.4 | 1.59
8 | B8 | 0.4 | 1.5
9 | B9 | 0.4 | 1.54
10 | B10 | 0.2 | 2.3
11 | B11 | 0.6 | 0.9
12 | B12 | 0.5 | 1.16
13 | B13 | 0.5 | 1.03
14 | B14 | 0.4 | 1.5
15 | B15 | 0.2 | 2.13
16 | B16 | 0.3 | 1.86
17 | B17 | 0.3 | 1.7
18 | B18 | 0.5 | 0.93
19 | B19 | 0.4 | 1.65

biological target: T1, human PAC1 receptor (human, UniProt P41586 24-468); assay: cell-based or functional assay
T1 sequence: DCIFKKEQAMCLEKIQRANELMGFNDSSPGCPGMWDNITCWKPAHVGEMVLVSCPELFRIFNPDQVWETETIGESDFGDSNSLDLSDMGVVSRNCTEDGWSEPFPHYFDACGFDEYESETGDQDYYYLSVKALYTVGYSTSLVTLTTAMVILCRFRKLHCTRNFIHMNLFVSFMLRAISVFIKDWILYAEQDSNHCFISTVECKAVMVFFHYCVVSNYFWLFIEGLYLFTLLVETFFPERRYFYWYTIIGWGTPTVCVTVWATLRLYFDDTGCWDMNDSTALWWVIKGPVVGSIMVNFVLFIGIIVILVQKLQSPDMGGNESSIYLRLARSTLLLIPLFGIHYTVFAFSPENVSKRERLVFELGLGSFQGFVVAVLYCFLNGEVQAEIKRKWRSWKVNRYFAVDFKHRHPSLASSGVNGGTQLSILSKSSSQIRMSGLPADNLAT

Row | Binder | Fold-improvement over 29G4v22 Ab [fold] | IC50 [nM]
20 | B1 | 11.2 | 0.57
21 | B2 | 7.2 | 0.8
22 | B3 | 6.5 | 0.98
23 | B4 | 7.4 | 0.87
24 | B5 | 6.7 | 0.86
25 | B6 | 4.9 | 1.31
26 | B7 | 3.9 | 1.63
27 | B8 | 4.5 | 1.4
28 | B9 | 4.8 | 1.34
29 | B10 | 3.3 | 1.74
30 | B11 | 9.5 | 0.68
31 | B12 | 10.5 | 0.61
32 | B13 | 9 | 0.64
33 | B14 | 3.3 | 1.91
34 | B15 | 4.4 | 1.32
35 | B16 | 9.3 | 0.69
36 | B17 | 1.9 | 3
37 | B18 | 10.9 | 0.53
38 | B19 | 5.8 | 1.1
